Data on 20 compounds can be found in US9845340B2, “Peptides that specifically bind HGF receptor (cMet) and uses thereof” (Dyax Corp., priority 2003, dated 2017).

Test [1] addresses T1, 3T3 cells that over-express human cMet (Homo sapiens, UniProt P08581).
T1 construct: expressed in transfected cells; host or cells: 3T3 cells
Description: Whole cell ELISA of peptide-displaying phage. Type of test: cell-based. Particulars: phage isolate; 3T3 cells expressing human cMet vs. non-expressing 3T3 cells. How it is done:
Whole cell ELISAs were performed using 3T3 cells that over-express human cMet. […] Briefly, 96-well plates were seeded with 10^5 cells per well. The plates were centrifuged for 5 minutes at 1600 rpm to pellet the cells. The resulting cell layer was fixed with 0.1% (v/v) glutaraldehyde for 12 minutes at 37 C. […] Peptide-displaying phage also were blocked in the above solution for 1 hour at 37 C. 100 μL of blocked phage was then added to each well and the plates were incubated for 1 hour at room temperature. The plates were washed with PBST. cMet-binding peptide-displaying phage were detected using an HRP-conjugated anti-M13 antibody.
A general note: ELISA stands for enzyme-linked immunosorbent assay.

The next test deals with cMet-Fc fusion protein (Homo sapiens, UniProt P08581). Description: Protein phage ELISA: peptide-displaying phage binding to soluble cMet-Fc versus TRAIL-Fc. As to conditions: phage isolate; cMet-Fc vs. TRAIL-Fc. How it is done:
Protein phage ELISAs using peptide-displaying phage isolates from the various selection campaigns were performed to determine specificity of the peptides for cMet versus an unrelated Fc-fusion protein (TRAIL-Fc). Briefly, 384-well plates were coated overnight at 4 C with 0.5 μg/mL of cMet-Fc fusion protein or TRAIL-Fc fusion protein (background). The plates were blocked for 2 hours 37C with 3% (w/v) BSA in PBS containing 0.05% (v/v) Tween-20 (PBST). The plates were washed with PBST and 100 μL of peptide-displaying phage were added to each well. The plates were incubated for 2 hours at room temperature and washed with PBST. cMet-binding peptide-displaying phage were detected using an HRP-conjugated anti-M13 antibody.

T1 sequence (P08581 25-1390): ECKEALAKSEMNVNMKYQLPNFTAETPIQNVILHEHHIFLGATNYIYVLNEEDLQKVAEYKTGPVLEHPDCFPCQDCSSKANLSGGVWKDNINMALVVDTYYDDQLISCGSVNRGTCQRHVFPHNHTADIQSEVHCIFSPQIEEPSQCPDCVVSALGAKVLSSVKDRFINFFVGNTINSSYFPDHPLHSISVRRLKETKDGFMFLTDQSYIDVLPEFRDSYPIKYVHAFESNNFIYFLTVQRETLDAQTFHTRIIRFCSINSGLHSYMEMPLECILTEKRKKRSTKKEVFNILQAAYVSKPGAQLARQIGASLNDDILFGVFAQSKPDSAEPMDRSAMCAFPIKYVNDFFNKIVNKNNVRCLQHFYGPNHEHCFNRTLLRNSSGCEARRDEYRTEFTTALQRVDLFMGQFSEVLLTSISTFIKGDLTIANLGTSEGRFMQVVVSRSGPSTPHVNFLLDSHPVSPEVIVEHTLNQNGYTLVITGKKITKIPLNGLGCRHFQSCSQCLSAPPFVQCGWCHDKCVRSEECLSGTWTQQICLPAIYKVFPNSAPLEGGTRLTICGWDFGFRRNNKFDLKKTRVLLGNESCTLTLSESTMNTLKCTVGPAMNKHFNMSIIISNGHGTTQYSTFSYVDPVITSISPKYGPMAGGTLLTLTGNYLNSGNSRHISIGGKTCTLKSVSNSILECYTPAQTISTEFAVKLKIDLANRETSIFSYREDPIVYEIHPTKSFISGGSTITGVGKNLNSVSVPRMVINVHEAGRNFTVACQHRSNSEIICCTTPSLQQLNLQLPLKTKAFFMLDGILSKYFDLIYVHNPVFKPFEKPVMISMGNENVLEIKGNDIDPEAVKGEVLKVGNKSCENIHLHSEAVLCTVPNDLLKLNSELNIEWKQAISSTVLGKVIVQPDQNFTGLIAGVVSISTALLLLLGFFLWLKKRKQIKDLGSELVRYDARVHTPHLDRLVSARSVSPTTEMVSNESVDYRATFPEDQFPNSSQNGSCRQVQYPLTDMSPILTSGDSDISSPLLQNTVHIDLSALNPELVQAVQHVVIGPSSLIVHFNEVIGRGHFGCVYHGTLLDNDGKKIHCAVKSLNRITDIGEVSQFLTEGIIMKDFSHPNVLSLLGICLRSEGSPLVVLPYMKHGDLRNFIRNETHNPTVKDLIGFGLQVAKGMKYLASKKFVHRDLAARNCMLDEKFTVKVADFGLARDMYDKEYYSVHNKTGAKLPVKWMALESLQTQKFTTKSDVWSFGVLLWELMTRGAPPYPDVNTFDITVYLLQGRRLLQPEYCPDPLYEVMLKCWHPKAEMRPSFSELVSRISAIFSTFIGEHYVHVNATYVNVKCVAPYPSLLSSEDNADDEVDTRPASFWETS
Chain of cMet-Fc fusion protein (P08581 25-307 limits assumed): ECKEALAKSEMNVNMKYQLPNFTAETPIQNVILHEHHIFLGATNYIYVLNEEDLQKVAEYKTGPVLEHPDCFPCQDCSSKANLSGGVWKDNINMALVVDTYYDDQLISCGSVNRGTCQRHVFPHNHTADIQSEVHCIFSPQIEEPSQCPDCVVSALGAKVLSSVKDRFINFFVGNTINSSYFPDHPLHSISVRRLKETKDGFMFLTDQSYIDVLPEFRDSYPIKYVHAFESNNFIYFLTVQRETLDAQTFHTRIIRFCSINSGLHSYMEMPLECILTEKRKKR
Chain of cMet-Fc fusion protein (P08581 with tags, fused parts or gaps limits assumed): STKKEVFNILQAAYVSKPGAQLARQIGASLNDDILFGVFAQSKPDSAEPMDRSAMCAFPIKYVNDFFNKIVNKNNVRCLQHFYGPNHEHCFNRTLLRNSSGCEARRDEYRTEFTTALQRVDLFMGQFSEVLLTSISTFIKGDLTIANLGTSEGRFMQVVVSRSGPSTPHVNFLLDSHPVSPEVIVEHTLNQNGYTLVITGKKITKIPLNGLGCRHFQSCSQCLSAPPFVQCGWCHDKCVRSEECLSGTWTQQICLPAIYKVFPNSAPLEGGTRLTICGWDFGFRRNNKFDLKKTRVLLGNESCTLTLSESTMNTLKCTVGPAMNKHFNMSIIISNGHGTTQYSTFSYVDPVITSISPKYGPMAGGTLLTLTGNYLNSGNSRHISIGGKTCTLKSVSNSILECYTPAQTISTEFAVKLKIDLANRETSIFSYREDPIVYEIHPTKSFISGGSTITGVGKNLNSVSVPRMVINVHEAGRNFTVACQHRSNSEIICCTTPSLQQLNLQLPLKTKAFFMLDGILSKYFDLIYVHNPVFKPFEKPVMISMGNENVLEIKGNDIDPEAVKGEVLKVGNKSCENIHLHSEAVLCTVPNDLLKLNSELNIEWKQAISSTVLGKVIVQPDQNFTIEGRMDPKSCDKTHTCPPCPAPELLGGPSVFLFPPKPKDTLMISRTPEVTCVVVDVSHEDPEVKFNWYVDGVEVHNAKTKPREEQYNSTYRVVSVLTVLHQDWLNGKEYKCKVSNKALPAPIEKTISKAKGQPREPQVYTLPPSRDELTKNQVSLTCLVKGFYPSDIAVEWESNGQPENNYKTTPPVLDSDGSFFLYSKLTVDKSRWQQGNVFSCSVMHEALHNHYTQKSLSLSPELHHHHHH

Consider “AGDWICHGPPMFECEWVGT (Synthetically generated cMet-binding peptide sequence) [SEQ ID NO: 058]”, for which the “WC ELISA” value in test [1] is listed as 1.17 fold over background. Besides, the “Protein ELISA” value with cMet-Fc fusion protein is reported as 15.9 fold over background.

Regarding “GDYYQCQFSKDMYSERCWPYDP (Synthetically generated cMet-binding peptide sequence) [SEQ ID NO: 397]”, the “WC ELISA” value in test [1] was 1.30 fold over background. The “Protein ELISA” value with cMet-Fc fusion protein is on record as 7.0 fold over background.

Take “GDASWCDENSPAAWFYCELWDP (Synthetically generated cMet-binding peptide sequence) [SEQ ID NO: 394]”: the “WC ELISA” value in test [1] is 1.37 fold over background. Further, in the test with cMet-Fc fusion protein, the “Protein ELISA” value was 13.4 fold over background.

Take “GSMLMCELWWCRFLAP (Synthetically generated cMet-binding peptide sequence) [SEQ ID NO: 004]”: in test [1], the “WC ELISA” value is 1.27 fold over background. For the same compound, the “Protein ELISA” value with cMet-Fc fusion protein was 3.4 fold over background.

As for “AGMTLCAGPPTFECYEVGT (Synthetically generated cMet-binding peptide sequence) [SEQ ID NO: 092]”, in test [1], the “WC ELISA” value turned out to be 1.23 fold over background. The “Protein ELISA” value in the test with cMet-Fc fusion protein amounted to 12.3 fold over background.

On to “AGTIRCNLAMMVCMFEGT (Synthetically generated cMet-binding peptide sequence) [SEQ ID NO: 028]”, for which, in test [1], the “WC ELISA” value worked out at 1.43 fold over background. For the same compound, the “Protein ELISA” value in the test with cMet-Fc fusion protein worked out at 3.6 fold over background.

As to “GSRFHCWQGDLMQTYCMPMAP (Synthetically generated cMet-binding peptide sequence) [SEQ ID NO: 376]”, the “WC ELISA” value in test [1] stood at 1.30 fold over background. In addition, the “Protein ELISA” value with cMet-Fc fusion protein came to 3.0 fold over background.

Turning to `CC(=O)N[C@@H](C)C(=O)N[C@@H](CCC(N)=O)C(=O)N[C@@H](CCC(N)=O)C(=O)N[C@@H](C)C(=O)N[C@@H](CO)C(=O)N[C@@H](CCCNC(=N)N)C(=O)N[C@@H](Cc1ccccc1)C(=O)N[C@H](C(=O)N[C@@H](Cc1ccccc1)C(=O)N[C@H](C(=O)N[C@@H](CC(=O)O)C(=O)NCC(=O)N[C@@H](CC(=O)O)C(=O)N[C@@H](CO)C(=O)N[C@@H](Cc1ccc(O)cc1)C(=O)N[C@@H](Cc1c[nH]c2ccccc12)C(=O)N[C@@H](Cc1c[nH]c2ccccc12)C(=O)N[C@@H](Cc1ccccc1)C(=O)N[C@@H](CCC(=O)O)C(=O)N[C@@H](CC(=O)O)C(=O)N[C@@H](Cc1ccccc1)C(=O)NCC(=O)NCC(=O)NCC(=O)N[C@@H](CCCCNC(=O)c1ccc2c(c1)C(=O)OC21c2ccc(O)cc2Oc2cc(O)ccc21)C(N)=O)[C@@H](C)O)[C@@H](C)O` [SEQ ID NO: 449], the “WC ELISA” value in test [1] was 1.17 fold over background. Also, the “Protein ELISA” value at cMet-Fc fusion protein stood at 7.0 fold over background.

Take `CC[C@H](C)[C@H](NC(=O)[C@@H](NC(=O)[C@H](CCC(=O)O)NC(=O)[C@H](Cc1c[nH]cn1)NC(=O)[C@@H](NC(=O)[C@H](C)NC(=O)[C@@H]1CCCN1C(=O)[C@H](CC(N)=O)NC(=O)[C@H](Cc1ccccc1)NC(=O)[C@H](CCCCN)NC(=O)[C@H](Cc1ccccc1)NC(=O)[C@H](Cc1c[nH]cn1)NC(=O)[C@@H](NC(=O)[C@@H](NC(=O)[C@H](C)NC(=O)[C@H](CCSC)NC(=O)[C@H](CC(=O)O)NC(=O)[C@H](CCC(=O)O)NC(=O)[C@@H](NC(=O)[C@H](CCC(N)=O)NC(=O)[C@H](C)NC(C)=O)C(C)C)[C@@H](C)O)C(C)C)[C@@H](C)O)C(C)C)C(=O)N[C@@H](Cc1c[nH]c2ccccc12)C(=O)NCC(=O)NCC(=O)NCC(=O)N[C@@H](CCCCNC(=O)c1ccc2c(c1)C(=O)OC21c2ccc(O)cc2Oc2cc(O)ccc21)C(N)=O` [SEQ ID NO: 492]: the “WC ELISA” value in test [1] was 1.53 fold over background. Besides, the “Protein ELISA” value on cMet-Fc fusion protein came out at 3.2 fold over background.

In the case of “AQFSGLVMYGRTHEVQWTFGSM (Synthetically generated cMet-binding peptide sequence) [SEQ ID NO: 477]”, the “WC ELISA” value in test [1] is 1.30 fold over background. In addition, the “Protein ELISA” value in the test with cMet-Fc fusion protein is reported as 3.5 fold over background.

As for “GDNRFCSWVYNVDDWWCVDNDP (Synthetically generated cMet-binding peptide sequence) [SEQ ID NO: 398]”, in test [1], the “WC ELISA” value was 1.30 fold over background. The “Protein ELISA” value in the test with cMet-Fc fusion protein turned out to be 6.2 fold over background.

For the compound “AGSIACTGWPYFSCIDLGT (Synthetically generated cMet-binding peptide sequence) [SEQ ID NO: 088]”, the “WC ELISA” value in test [1] is recorded as 1.10 fold over background. Also, the “Protein ELISA” value with cMet-Fc fusion protein amounted to 5.6 fold over background.

As to “GSLYRCLGEASPTPPCAYEAP (Synthetically generated cMet-binding peptide sequence) [SEQ ID NO: 380]”, the “WC ELISA” value in test [1] is listed as 1.37 fold over background. In addition, in the test with cMet-Fc fusion protein, the “Protein ELISA” value was determined as 4.0 fold over background.

For the compound “AQNAVVPPPMLWSIYWDYGREG (Synthetically generated cMet-binding peptide sequence) [SEQ ID NO: 457]”, the “WC ELISA” value in test [1] was determined as 1.37 fold over background. Further, in the test with cMet-Fc fusion protein, the “Protein ELISA” value is listed as 7.0 fold over background.

Consider “AQHMDPAEWDWFIRIYSPVVNP (Synthetically generated cMet-binding peptide sequence) [SEQ ID NO: 487]”, for which the “WC ELISA” value in test [1] amounted to 1.80 fold over background. For the same compound, the “Protein ELISA” value in the test with cMet-Fc fusion protein was determined as 3.0 fold over background.

In the case of “GSMLGCLFEHQNKYDCYVLAP (Synthetically generated cMet-binding peptide sequence) [SEQ ID NO: 379]”, the “WC ELISA” value in test [1] was 1.43 fold over background. Besides, the “Protein ELISA” value with cMet-Fc fusion protein was found to be 3.2 fold over background.

With “AGNYWCSGPPSFICHAVGT (Synthetically generated cMet-binding peptide sequence) [SEQ ID NO: 091]”, the “WC ELISA” value in test [1] was 1.27 fold over background. For the same compound, the “Protein ELISA” value in the test with cMet-Fc fusion protein is 8.9 fold over background.

Regarding “GSFNICPYQWCTLWAP (Synthetically generated cMet-binding peptide sequence) [SEQ ID NO: 010]”, in test [1], the “WC ELISA” value turned out to be 1.37 fold over background. In addition, the “Protein ELISA” value with cMet-Fc fusion protein is reported as 3.0 fold over background.

Turning to `CC(=O)N[C@@H](C)C(=O)NCC(=O)N[C@@H](Cc1c[nH]c2ccccc12)C(=O)N[C@@H](Cc1ccccc1)C(=O)N[C@@H](CCC(N)=O)C(=O)N[C@H]1CSSC[C@@H](C(=O)N[C@@H](CCC(=O)O)C(=O)N[C@@H](CCCNC(=N)N)C(=O)N[C@@H](Cc2c[nH]cn2)C(=O)NCC(=O)N[C@H](C(=O)NCC(=O)NCC(=O)NCC(=O)N[C@@H](CCCCNC(=O)c2ccc3c(c2)C(=O)OC32c3ccc(O)cc3Oc3cc(O)ccc32)C(N)=O)[C@@H](C)O)NC(=O)[C@H](CCC(=O)O)NC(=O)[C@H](Cc2ccccc2)NC(=O)[C@H](CO)NC(=O)[C@@H]2CCCN2C(=O)[C@@H]2CCCN2C(=O)CNC(=O)[C@H](CCCCN)NC1=O` [SEQ ID NO: 051], the “WC ELISA” value in test [1] is 1.33 fold over background. Moreover, the “Protein ELISA” value on cMet-Fc fusion protein came to 5.4 fold over background.

For the compound “GSQNNCEYGSRGSSFCLAMAP (Synthetically generated cMet-binding peptide sequence) [SEQ ID NO: 377]”, the “WC ELISA” value in test [1] amounted to 1.23 fold over background. Further, the “Protein ELISA” value with cMet-Fc fusion protein worked out at 6.4 fold over background.
